Assay [1] has as its target T1, V-Set And Immunoglobulin Domain Containing 4 (VSIG4) (human, UniProt Q9Y279 20-283, limits assumed).
T1 construct: also called CRIg; Z39Ig
T1 sequence (looked up): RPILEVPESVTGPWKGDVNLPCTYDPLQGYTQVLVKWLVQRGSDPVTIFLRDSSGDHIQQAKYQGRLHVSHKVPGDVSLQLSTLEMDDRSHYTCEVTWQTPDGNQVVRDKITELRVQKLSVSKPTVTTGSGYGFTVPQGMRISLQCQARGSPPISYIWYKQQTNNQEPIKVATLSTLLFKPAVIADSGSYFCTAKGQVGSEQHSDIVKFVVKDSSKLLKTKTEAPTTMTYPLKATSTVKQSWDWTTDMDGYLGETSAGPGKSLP
The assay can be described thus: kinetic affinity measurement; method not stated.

The target in assay [2] is T1, V-Set And Immunoglobulin Domain …. The experiment in a line: kinetic affinity measurement; method not stated at the table (SPR named for EU103.2 in FIG. 4B).

B1: A1 antibody (EU103_T01.01) (antibody, V domains shown)
VH: QVTLKESGPTLVKPTQTLTLTCTFSGISLTTSGMGVGWIRQPPGKALEWLADIFWDDNKYYNPSLKSRLTITKDTSKNQVVLTMTNMDPVDTATYYCVRVYYKNDGYFDVWGKGTTVTVSS
VL: DIVLTQSPLSLPVTLGQPASISCRASKSVTTSGYSFMHWYQQRPGQSPRLLIYLASNLEPGVPDRFSGSGSGTDFTLKISRVEAEDVGVYYCQQSGELPYTFGQGTKLEIK
For the molecule B1, in assay [1], the affinity, expressed as Kd, was 8.69 nM; the koff (commonly the first-order rate constant of dissociation) was found to be 0.00328 s⁻¹; the on-rate constant (kon) (commonly a measure of how fast the partners come together) was determined as 378000 M⁻¹ s⁻¹.

B2: A2 antibody (EU103_T01.02) (antibody, V domains shown)
VH: QVTLKESGPTLVKPTQTLTLTCTFSGISLTTSGMGVGWIRQPPGKALEWLADIFWDDNKYYNPSLKSRLTITKDTSKNQVVLTMTNMDPVDTATYYCVRVYYKNDGYFDVWGKGTTVTVSS
VL: DIVLTQSPLSLPVTLGQPASISCRASKSVTTSGYSFMHWYQQRPGQSPRLLIYLASNLEPGVPDRFSGSGSGTDFTLKIFRVEAEDVGVYYCQQSGELPYTFGQGTKLEIK
Take B2: in assay [1], the Kd (as a rule, the equilibrium constant for the complex coming apart) came to 8.23 nM; the koff worked out at 0.00296 s⁻¹; the kon amounted to 360000 M⁻¹ s⁻¹.

B3: A1.3 antibody (EU103_T01.01S) (antibody, V domains shown)
VH: QVTLVESGPTLVKPGQTLTLTCTFSGISLTTSGMGVGWIRQPPGKALEWLADIFWDDNKYYNPSLKGRLTITKDTSKNQVYLTMTNMDPVDTATYYCVRVYYKNDGYFDVWGKGTTVTVSS
VL: DIVLTQSPLSLPVTLGQPASISCRASKSVTTSGYSFMHWYQQRPGQSPRLLIYLASNLEPGVPDRFSGSGSGTDFTLKISRVEAEDVGVYYCQQSGELPYTFGQGTKLEIK
notes: Generated from A1
In assay [1], B3 displayed a Kd of 7.95 nM, a koff of 0.0032 s⁻¹ and an association rate constant (kon) of 402000 M⁻¹ s⁻¹.

B4: A2.3 antibody (EU103_T01.02S) (antibody, V domains shown)
VH: QVTLVESGPTLVKPGQTLTLTCTFSGISLTTSGMGVGWIRQPPGKALEWLADIFWDDNKYYNPSLKGRLTITKDTSKNQVYLTMTNMDPVDTATYYCVRVYYKNDGYFDVWGKGTTVTVSS
VL: DIVLTQSPLSLPVTLGQPASISCRASKSVTTSGYSFMHWYQQRPGQSPRLLIYLASNLEPGVPDRFSGSGSGTDFTLKIFRVEAEDVGVYYCQQSGELPYTFGQGTKLEIK
notes: Generated from A2
In assay [1], B4 returned a Kd of 7.64 nM, a koff of 0.00308 s⁻¹ and an association rate constant (kon) of 404000 M⁻¹ s⁻¹.

B5: EU103.2 antibody (antibody, V domains shown)
VH: QVQLQESGPGLVKPSQTLSLTCSFSGISLTTSGMGVGWIRQPPGKGLEWLADIFWDDNKYYNPSLKSRVTISVDTSKNQFSLKLSSVTAADTAVYYCVRVYYKNDGYFDVWGQGTLVTVSS
VL: EIVMTQSPATLSVSPGERATLSCRASKSVTTSGYSFMHWYQQKPGQAPRLLIYLASNLEPGIPARFSGSGSGTEFTLTISSLQSEDFAVYYCQHSRELPYTFGQGTKLEIK
notes: also called humanized anti-VSIG4 antibody generated from mouse anti-VSIG4 antibody mu6H8
For B5, in assay [2], the affinity, expressed as Kd, was 71.6 nM; the koff came to 0.0131 s⁻¹; the kon worked out at 183000 M⁻¹ s⁻¹.

The record behind these values is patent publication US20200291126A1 (EUTILEX, published 2020).
